# Fewer inactive variants are shown than the library holds.
# B1: TPR 5TU (parent)
# chain: GGAUCUUCUCGAUCUAACAAAAAAGACAAAUCUGCCACAAAGCUUGAGAGCAUCUUCGGAUGCAGAGGCGGCAGCCUUCGGUGGCGCGAUAGCGCCAACGUUCUCAACUAUGACACGCAAAACGCGUGCUCCGUUGAAUGGAGUUUAUCAUG
# Variants of: B1
# Experiment: polymerase ribozyme fitness, log enrichment relative to wild type (log ratio); higher = more active; in vitro selection for triplet polymerase activity
# Procedure, shortened: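 PCR was used to build mutant libraries for each subunit of a heterodimeric triplet polymerase ribozyme, which were then transcribed. A single in vitro selection round, in triplicate, used a frozen incubation at −7 °C and recovered extended constructs by gel excision, streptavidin beads and RT-PCR. Fitness is the logarithm of genotype enrichment relative to wild-type enrichment, averaged over replicates with inverse-variance weights. The logarithm is base 2, and after Illumina sequencing only genotypes with ≥10 input reads and ≥1 read per output were kept.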
row,Variant,polymerase ribozyme fitness (log ratio)
1,C85U A120G,-1.65
2,C43A C87U G136C,≤ -4.2
3,U53A C75U G84C,-2.82
4,A3G A16C A26C U45A G59C G86C U130G U145G,≤ -4.2
5,G50C G65A,-3.27
6,U13C C54U C87U,-1.35
7,U9G A17G A52U C75G G84A C105U,≤ -4.2
8,U13G C14U A16G G59A U90G,-4.01
9,G62U A106C U146G C149U,-3.91
10,U56G A66C G81A C87U G117A,≤ -4.2
11,A28U A29G C32U C57G,≤ -4.2
12,U6A A21U U31A G74A,≤ -4.2
13,C5G A20G C75U C87U A119G A142G,-3.16
14,C57U G83U,-1.72
15,G48A A137G C149U,-3.82
16,U13C A21G U31C G42A A52C C95A C129G,≤ -4.2
17,A64G G84U U151A,≤ -4.2
18,G58A U104A,0.105
19,A40C C85G C87U C93U U148C,≤ -4.2
20,A19U A23C A91U,≤ -4.2
21,U53A G58C A66C G84A A91G U102G A119U C132A,≤ -4.2
22,U53G U55A,-1.92
23,C8G G25C U53G C63U C108A,≤ -4.2
24,C32G G59C U61A U82A G84U U134G G140C,≤ -4.2

row,Variant,polymerase ribozyme fitness (log ratio)
1,A40U A60U,-0.238
2,U45G C75G C87A A120C G141C,≤ -4.2
3,U90C G94U,-3.46
4,C35U U44G C85U C116G C123A,-3.89
5,A49G U53A G59A A142U,-2.64
6,C5G A23C A66G C69U A91G C105G A120U,≤ -4.2
7,G92A C116U C125U U134C,≤ -4.2
8,A21U A39U C43G G50C G92A G141U,≤ -4.2
9,C18U G25C A26C C32G G50U G58C C75U A91G C114A,≤ -4.2
10,A37C U56A,-0.806
11,G83U A120U G141C,-0.804
12,G42C C95A C99G A107U,≤ -4.2
13,U55A C125A G141A,-4.12
14,A22U U82G C93A G124U C125U,-2.61
15,G46C C149U,-2.58
16,G50C C87G,≤ -4.2
17,G48C C76A C93U G94A A138C G140A U146G,≤ -4.2
18,A49G G68U G133A,≤ -4.2
19,A16G A28U C87A A107C,≤ -4.2
20,A19C A21U U101A,0.427
21,G84A A115U G126A,-4.17
22,A12C C57U C76G C96U,≤ -4.2
23,A22U C57U U78A C79U G84C G117C,≤ -4.2
24,C93A C118U,-3.29

row,Variant,polymerase ribozyme fitness (log ratio)
1,U55A C87A C108G,≤ -4.2
2,A49G G50A U56A C95U U101C U111G,≤ -4.2
3,C10U A52U A60C G88U,≤ -4.2
4,C96A A115C,-0.888
5,U15C A41G U61G C99U,-2.24
6,U55C U61A U82A,-2.36
7,C57G C125A,-0.508
8,G94C G100C C131U G133C C149G,≤ -4.2
9,C8U C35U A41C G58C G68U G86U C114A G140A,≤ -4.2
10,A16G C35A,-3.53
11,A28U G67A G74A G86C C108A C132A,≤ -4.2
12,C76A C85A A121G,-2.03
13,G58A G84A U104G G126U,-0.778
14,C54G C85A G92C G133U U146G,≤ -4.2
15,U31C C35U A41G C54U G86C,-2.75
16,G59C U61A A64C,≤ -4.2
17,A30C G46U G94U G143A,≤ -4.2
18,U56A C96U G126A,-0.336
19,A52G C96G G112C,≤ -4.2
20,A3U C8A A39U A91G U111A A115U G117U,≤ -4.2
21,C38A U44A A47U G86U C87G G100A A107G C118U,≤ -4.2
22,A17C U55A G68A A73G C85U U127A G141U,≤ -4.2
23,C5A C36U C79U A121G,≤ -4.2
24,U31G G50A C51U G62C G68U C95U U101G A106C,≤ -4.2

row,Variant,polymerase ribozyme fitness (log ratio)
1,C5U A20C G59A A60G C69A A98G,-2.12
2,G126A C132U,-0.105
3,C54A U56G C95A A120G,-1.33
4,U9G U61A C75U C85U G124C,≤ -4.2
5,U6G U13G A41U A52C G133U A138G U148G,≤ -4.2
6,U15A G83U,-0.19
7,U15G C57G C93A C99G,-4.06
8,G11C A23U G48C C79A U82G G94U A142U,≤ -4.2
9,A52U U53G G88C A91C,≤ -4.2
10,C93A C125A,-1.68
11,U6A A60C A142G,-3.03
12,A20C G84U,-3.03
13,A29U U31A U56G A66G C96U C105A A138U,≤ -4.2
14,A24C G50C U56A C93U G94C U148C,≤ -4.2
15,G50U C95A U109G,-3.26
16,U61A A73G C93U C125A,-3.14
17,U53A G59A C85G C149U,-3.31
18,C5A U13C C38U A121G U127C,-4.07
19,A12G C14U A19G A21U A28G G65C G84C G124U G143C U145C,≤ -4.2
20,A28C A40U U53A G84U A115U,≤ -4.2
21,C10U G42C A49C A66G C79G A91G C125A A147G A150C,≤ -4.2
22,A52G G152C,-3.59
23,G67A G74C G94A A119G,≤ -4.2
24,A40G A64U U134G A142C,≤ -4.2

row,Variant,polymerase ribozyme fitness (log ratio)
1,U13C,-0.269
2,A20G A21U G59C C69A A98G U109A,≤ -4.2
3,A40C U56A G59A C87A A89C G112U A119U G143A,≤ -4.2
4,G46U G83A G143C,-4.16
5,G48A A52G U55G G70C C96A,≤ -4.2
6,U9G U55A C96G C116A,-4.14
7,U31G C99U U145G,-0.861
8,G34U G68U C95G G133A,≤ -4.2
9,U7A A28U G67C C87U C96G C123A,≤ -4.2
10,C76U C87U U102C,-1.82
11,A24U C32G U55G U78A U104G,≤ -4.2
12,C54A U55A,-1.91
13,G94A U101C,-0.823
14,C75U A107G A142G,≤ -4.2
15,A20C G94U G152C,-2.76
16,G86A C114A,-4.1
17,A19U A22C C93U U145A,-1.22
18,C32U G34C C51U U130G U145A,≤ -4.2
19,A39C G94A,-2.88
20,A17C A29U C72U G81C G140U,≤ -4.2
21,A3C G141U,0.471
22,U4G G11C U44G,≤ -4.2
23,A40U C114U A121C,-2.44
24,A29U A40G,-4.2

row,Variant,polymerase ribozyme fitness (log ratio)
1,U82A C93U A119U U127G G143C,-4.06
2,A22C C32U C85G C95A G100A G112C,≤ -4.2
3,G71U,-1.93
4,C18A U56A G92U C105U C114A U144G,-3.79
5,C54U A60C C99U,-3.17
6,A52C G152U,-3.45
7,A60G C87A U109A C132G,≤ -4.2
8,C93U G141A,-1.7
9,A22U A30U C95U U134A,≤ -4.2
10,A41G U56A C79U U82G C85U A122G C129A G136U,≤ -4.2
11,C85U A98U,-1.49
12,A17G,0.0905
13,A26U U82A A106C,-3.93
14,A19C A20G G136A A147G,-2.36
15,G92A G141C A147U,-3.44
16,G88A C96A C103U,≤ -4.2
17,G11C C85U A119G,-2.02
18,A49G C69U,-1.39
19,U82A G126A G133C,-1.01
20,U6C A19U A60C C87A A91U U134G,≤ -4.2
21,A40C A52G G80U C114G G128U G133U,≤ -4.2
22,A26U C36G U134A G143U U144C,≤ -4.2
23,A49G C63A G71U G83U A122U A150U,≤ -4.2
24,A52C C93U G94C,-3.36

row,Variant,polymerase ribozyme fitness (log ratio)
1,A19U U56A A60G C75U C93A C118U U146A,-3.86
2,G67U G70C G86A C132G,≤ -4.2
3,C69U C116U U135A G136U,-4.18
4,A39C G86U,-4.18
5,A3U U13C A41U C76U C123U,-2.89
6,C27G G58C G86A C105A U144A,≤ -4.2
7,A52U A137G,-2.89
8,G11A G50C C93U A97U G141U,≤ -4.2
9,A52G C93G,-3.95
10,A52C C76A,≤ -4.2
11,A39U G83C,-2.01
12,U45G C57A,0.374
13,G11U A47C G50U C57G A64U C76G,≤ -4.2
14,U15C A17G C35G U56A G117C,-4.19
15,A22C A26U U31C A37C U56C A73C A91C,≤ -4.2
16,C27U C57U G94A C95A G143A,≤ -4.2
17,U6A C51A G58C C63G C93G U104G U145A U148C,≤ -4.2
18,A30U G88C G92U C95A,≤ -4.2
19,A60G C96U,0.674
20,A17C U31A G92U A98U G141A,0.253
21,C76A A98U G136A U145A,0.194
22,G58C A119C,-0.0646
23,A3G A22U A40U U44C C96G C116U U134C,≤ -4.2
